Results on 1 molecule are retold here after US20190004052A1 (published 2019).

Non-standard residues stand in square brackets, D forms with d. No end group written: not given here. pS = N[C@@H](COP(=O)(O)O)C(=O)O

The target of the assay is T1, Phosphopeptide TF1-Pser258 CKEN(pS)PLNVS (human).
T1 construct: Synthetic phosphopeptide
T1 peptide: CKEN[pS]PLNVS
The assay is described as follows: peptide ELISA, optical density (FIG. 7).

B1: hybrid IgG2b anti-TF2-Pser253 monoclonal antibody MAb 680 (antibody, V domains shown)
VH: DVQLQESGPGLVKPSQSLSLTCTVTGYSITSDYAWNWIRQFPGNKLEWMGYISYSGSTSYNPSLKSRISITRDTSKNQFFLQLNSVTTEDTATYYCARIRGYLAMDYWGQGTSVTVSS
VL: DIVMTQAAFSNPVTLGTSASISCRSSKSLLHSNGITYLYWYLQKPGQSPQLLIYQMSNLASGVPDRFSSSGSGTDFTLRISRVEAEDVGVYYCAQNLELPPTFGGGTKLEIKR
notes: The Fab portion of IgM clone 4A6-4B5-1E2 was fused onto murine IgG2b light and heavy chains and made in HEK cells; also called M680; hybrid IgG anti-TF2-pser253 M680
In the case of B1, the binding result is reported as “no binding”.
